Test results taken from PMC8546699, “Ehrlichia chaffeensis TRP120 Is a Wnt Ligand Mimetic That Interacts with Wnt Receptors and Contains a Novel Repetitive Short Linear Motif That Activates Wnt Signaling” (mSphere, 2021).

Legend:
[1] = target: rTRP120-tandem repeat domain truncate construct (rTRP120-TRD) (Ehrlichia chaffeensis) (UniProt Q2GI62); assay: SPR; His-tagged rTRP120-FL or rTRP120-TRD (0.1 µM) captured on Ni-NTA sensor chip; rFzd-ECD 0 to 1,600 nM flowed over; Biacore T100; 100 mM NaPO4 pH 7.4, 400 mM NaCl, 40 µM EDTA, 0.005% Tween 20; 1:1 fit
[2] = target: T1, recombinant, full-length TRP120 (rTRP120-FL) (Ehrlichia chaffeensis, UniProt Q2GI62 1-548); assay: as above; conditions: both partners purified
T1 construct: Ehrlichia chaffeensis tandem repeat protein TRP120, full-length gene cloned upstream of a 6xHis tag; Thioredoxin fusion from the vector pBAD/Thio-TOPO; also called rTRP12-FL; source: E. coli TOP10, pBAD/Thio-TOPO, purified (His-tag purification resin); not shown: His6, C-terminal, kept
T1 sequence: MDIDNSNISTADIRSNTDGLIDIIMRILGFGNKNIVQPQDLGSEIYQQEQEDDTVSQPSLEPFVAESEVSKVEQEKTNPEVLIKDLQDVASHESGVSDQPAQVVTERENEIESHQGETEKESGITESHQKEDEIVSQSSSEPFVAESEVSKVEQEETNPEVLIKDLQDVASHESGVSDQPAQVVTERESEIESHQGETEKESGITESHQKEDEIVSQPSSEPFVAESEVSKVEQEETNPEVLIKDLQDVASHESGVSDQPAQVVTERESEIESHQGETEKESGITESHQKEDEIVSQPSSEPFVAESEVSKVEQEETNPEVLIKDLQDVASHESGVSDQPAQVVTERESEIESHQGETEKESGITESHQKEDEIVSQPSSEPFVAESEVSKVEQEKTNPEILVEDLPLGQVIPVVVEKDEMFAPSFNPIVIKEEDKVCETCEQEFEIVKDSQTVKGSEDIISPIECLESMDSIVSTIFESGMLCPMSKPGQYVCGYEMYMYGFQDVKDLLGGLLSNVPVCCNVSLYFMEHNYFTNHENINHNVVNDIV

## recombinant Fzd5 extracellular domain (rFzd5-ECD) (from UniProt Q13467 27-238) (domain or fragment)
[1]
  Kd: 1.35 µM

B1: recombinant Fzd5 extracellular domain (rFzd5-ECD) (domain or fragment, UniProt Q13467 27-238, looked up)
chain: ASKAPVCQEITVPMCRGIGYNLTHMPNQFNHDTQDEAGLEVHQFWPLVEIQCSPDLRFFLCSMYTPICLPDYHKPLPPCRSVCERAKAGCSPLMRQYGFAWPERMSCDRLPVLGRDAEVLCMDYNRSEATTAPPRPFPAKPTLPGPPGAPASGGECPAGGPFVCKCREPFVPILKESHPLYNKVRTGQVPNCAVPCYQPSFSADERTFATFW
notes: Frizzled-5, recombinant extracellular domain (methods: 'cysteine-rich domain-truncated protein'); commercial Frizzled ECD proteins are often Fc chimeras and may be mouse (surmise); also called Fzd5-CRD; source: bought: R&D Systems
[2]
  Kd: 46.3 µM
